# T1: recombinant monkey TfR extracellular region (Macaca fascicularis) with N-terminal histidine tag (Sino … (Macaca fascicularis (crab-eating …, UniProt Q5RDH6 89-760 (Pongo abelii entry))))
# T1 construct: also called r monkey TfR; r monkey TfR-ECD (Histag); not shown: Histidine tag at the N-terminus
# T1 chain: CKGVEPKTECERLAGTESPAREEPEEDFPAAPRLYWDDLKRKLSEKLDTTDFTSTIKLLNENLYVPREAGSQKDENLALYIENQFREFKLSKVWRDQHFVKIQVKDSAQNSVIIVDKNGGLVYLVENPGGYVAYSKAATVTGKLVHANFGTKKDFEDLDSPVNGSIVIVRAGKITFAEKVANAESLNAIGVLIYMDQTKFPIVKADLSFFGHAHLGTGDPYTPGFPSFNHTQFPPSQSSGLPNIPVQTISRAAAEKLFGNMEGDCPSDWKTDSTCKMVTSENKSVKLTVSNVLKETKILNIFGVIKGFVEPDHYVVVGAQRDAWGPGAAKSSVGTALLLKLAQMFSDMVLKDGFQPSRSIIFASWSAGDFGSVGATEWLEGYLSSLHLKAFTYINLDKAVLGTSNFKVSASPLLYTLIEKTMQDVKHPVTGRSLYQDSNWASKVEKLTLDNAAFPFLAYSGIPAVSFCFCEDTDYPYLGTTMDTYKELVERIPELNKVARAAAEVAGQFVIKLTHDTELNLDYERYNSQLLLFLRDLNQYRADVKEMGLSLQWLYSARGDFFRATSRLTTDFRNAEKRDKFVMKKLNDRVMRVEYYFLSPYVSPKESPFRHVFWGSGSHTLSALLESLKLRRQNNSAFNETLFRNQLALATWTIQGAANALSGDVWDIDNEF
# Columns and labels:
# [1] = target: T1, recombinant monkey TfR extracellular …; experiment: BLI (Octet RED96) by the method of Example 7
# [2] = target: T2, recombinant human TfR extracellular region with N-terminal histidine tag (Sino Biological Inc.) (human, UniProt P02786 89-760); experiment: BLI (Octet RED96) by the method of Example 7
# T2 construct: also called r human TfR; r human TfR-ECD (Histag); not shown: Histidine tag at the N-terminus
# [3] = target: T2, recombinant human TfR extracellular …; experiment: BLI (Octet RED96), His-tagged TfR ECD loaded on Ni-NTA sensor, antibody in solution; human TfR
# Experimental: (§1) Purified anti-hTfR antibody No. 3 was diluted in two steps with HBS-P+ (10 mM HEPES containing 150 mM NaCl, 50 μM EDTA and 0.05% Surfactant P20), respectively, to prepare antibody solutions of 7 different concentrations, 0.78125 to 50 nM (0.117 to 7.5 μg/mL). These antibody solutions were used as sample solutions. The r human and r monkey TfRs were respectively diluted with HBS-P+ to prepare 25 pg/mL solutions, which were used as r human TfR-ECD (Histag) solution and r monkey TfR-ECD (Histag) solution, respectively.
# (§2) Each of the sample solutions prepared above by 2-fold dilution steps was added, 200 μL/well, to a 96-well plate, black (Greiner Bio-One Inc.). Each of the r human TfR-ECD (Histag) solution and the r monkey TfR-ECD (Histag) solutions prepared above was added, 200 μL/well, to predetermined wells. To respective wells for baseline, dissociation and washing were added HBS-P+, 200 μL/well. To wells for regeneration were added 10 mM Glycine-HCl (pH 1.7), 200 μL/well. To wells for activation was added 0.5 mM NiCl₂ solution, 200 μL/well. The plate and biosensor (Biosensor/Ni-NTA: ForteBio Inc., a division of Pall Corporation) were set in the prescribed positions of Octet RED96.
# (§3) The measurement was performed at 25 to 30° C.
# [4] = target: T1, recombinant monkey TfR extracellular …; experiment: BLI (Octet RED96), His-tagged TfR ECD loaded on Ni-NTA sensor, antibody in solution; monkey TfR
# Experimental: as §1, §2, §3
Kd [1],Kd [2],Kd [3],Kd [4],Binder
~1000 pM,≤ 1 pM,,,"humanized anti-hTfR antibody No. 3 (antibody, human IgG4 S228P, kappa, V domains shown, The heavy chain is of IgG4 type; also called humanized antibody of anti-hTfR antibody No. 3) VH: EVQLVQSGAEVKKPGESLKISCKGSGYSFTNYWLGWVRQMPGKGLEWMGDIYPGGDYPTYSEKFKVQVTISADKSISTAYLQWSSLKASDTAMYYCARSGNYDEVAYWGQGTLVTVSS VL: DIVMTQTPLSLSVTPGQPASISCRSSQSLVHSNGNTYLHWYLQKPGQSPQLLIYKVSNRFSGVPDRFSGSGSGTDFTLKISRVEAEDVGVYYCSQSTHVPWTFGQGTKVEIKR"
,,≤ 1 pM,≤ 1 pM,"mouse anti-hTfR antibody No. 3 (antibody, V domains shown, Mouse hybridoma antibody; also called anti-hTfR No. 3; antibody of Clone 3 line) VH: EVQLQESGAELVRPGTSVKISCKASGYTFMNYWLGWVKQRPGHGLEWIGDIYPGGDYPTYSEKFKVKAILTADTSSSSVYLHLSSLTSEDSAVYFCARSGNYDEVAYWGQGTLVTVST VL: DIVMTQTTLSLPVSLGDQASISCRSSQSLVHSNGNTYLHWYLQKPGQSPKLLIYKVSNRFSGVPDRFSGSGSGTDFTLKISRVEAEDLGVFFCSQSTHVPWTFGGGTKLEIKR"

# Source: patent publication US20210038739A1 (JCR PHARMACEUTICALS, published 2021)
